Results reported in patent publication US20140343258A1 (Astellas, published 2014).

T1: human CTGF (human, UniProt P29279 27-349)
T1 construct: also called human CTGF protein; connective tissue growth factor
T1 sequence: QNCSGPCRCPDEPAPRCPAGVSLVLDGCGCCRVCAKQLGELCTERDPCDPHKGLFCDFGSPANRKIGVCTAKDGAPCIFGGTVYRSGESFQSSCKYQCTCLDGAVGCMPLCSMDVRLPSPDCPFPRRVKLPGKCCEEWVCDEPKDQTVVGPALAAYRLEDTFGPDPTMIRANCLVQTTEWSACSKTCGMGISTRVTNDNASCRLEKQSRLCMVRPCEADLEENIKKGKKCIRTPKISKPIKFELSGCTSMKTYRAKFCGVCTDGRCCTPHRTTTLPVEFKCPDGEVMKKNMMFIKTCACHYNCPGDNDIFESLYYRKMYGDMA

T2: rat CTGF (rat, UniProt Q9R1E9 25-347)
T2 construct: mature
T2 sequence (looked up): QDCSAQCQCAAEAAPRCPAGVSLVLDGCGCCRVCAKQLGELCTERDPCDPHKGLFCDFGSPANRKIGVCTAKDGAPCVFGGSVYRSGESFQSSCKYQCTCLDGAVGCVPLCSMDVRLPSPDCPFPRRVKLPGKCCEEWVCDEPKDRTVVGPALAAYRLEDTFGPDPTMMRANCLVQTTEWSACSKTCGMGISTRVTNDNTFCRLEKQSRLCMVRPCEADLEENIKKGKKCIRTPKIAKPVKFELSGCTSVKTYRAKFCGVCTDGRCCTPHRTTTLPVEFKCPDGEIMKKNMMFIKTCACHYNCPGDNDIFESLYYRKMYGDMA

T3: mouse CTGF (mouse, UniProt P29268 26-348)
T3 construct: mature
T3 sequence (looked up): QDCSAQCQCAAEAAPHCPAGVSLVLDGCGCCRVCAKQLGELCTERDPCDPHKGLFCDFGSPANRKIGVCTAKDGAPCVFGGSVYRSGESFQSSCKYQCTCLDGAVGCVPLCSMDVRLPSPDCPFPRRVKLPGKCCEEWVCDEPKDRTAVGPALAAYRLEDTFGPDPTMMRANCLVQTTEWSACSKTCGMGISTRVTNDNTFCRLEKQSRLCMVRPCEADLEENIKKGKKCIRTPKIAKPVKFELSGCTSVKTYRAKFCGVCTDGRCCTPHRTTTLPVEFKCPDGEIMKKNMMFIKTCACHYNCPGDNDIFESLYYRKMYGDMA

B1: 37-45 (antibody, V domains shown)
VH: QVQLVQSGAEVKKPGASVKVSCKASGYTFTGYYMYWVRQAPGQGLEWMGWINPNSGGTNYSQKFQGRVTMTRDTSISTAYMELSRLRSDDTALYYCARGSKWNYPFDYWGQGTLVTVSS
VL: EIVLTQSPGTLSLSPGERATLSCRASQSVSSSYLAWYQQKPGQAPRLLIYGASRRATGIPDRFSGSGSGTDFTLTISRLEPEDFVVYFCQQYVSTPWTFGQGTKVEIKR
notes: also called 37-45 antibody
B2: fully human 37-45 (antibody, human IgG1, kappa, V domains shown)
VH: QVQLVQSGAEVKKPGASVKVSCKASGYTFTGYYMYWVRQAPGQGLEWMGWINPNSGGTNYSQKFQGRVTMTRDTSISTAYMELSRLRSDDTALYYCARGSKWNYPFDYWGQGTLVTVSS
VL: EIVLTQSPGTLSLSPGERATLSCRASQSVSSSYLAWYQQKPGQAPRLLIYGASRRATGIPDRFSGSGSGTDFTLTISRLEPEDFVVYFCQQYVSTPWTFGQGTKVEIKR
notes: Human Ig gamma1 and human kappa constant regions, expressed in CHO-K1SV cells; The heavy-chain variable region has an N-glycosylation motif at Asn 58 (Kabat)
B3: fully human 37-45-MH1 (antibody, human IgG1, kappa, V domains shown)
VH: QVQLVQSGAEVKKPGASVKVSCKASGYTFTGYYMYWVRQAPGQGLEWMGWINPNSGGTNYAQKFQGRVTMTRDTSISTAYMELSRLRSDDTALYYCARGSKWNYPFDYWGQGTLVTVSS
VL: EIVLTQSPGTLSLSPGERATLSCRASQSVSSSYLAWYQQKPGQAPRLLIYGASRRATGIPDRFSGSGSGTDFTLTISRLEPEDFVVYFCQQYVSTPWTFGQGTKVEIKR
notes: It has the same light chain as fully human 37-45; Human IgG1/kappa

How the values were obtained:
human CTGF [1] = molecular target: T1, human CTGF; assay: ELISA, human CTGF immobilized on the plate, HRP anti-mouse IgG detection
Method: The present inventors evaluated the binding specificity of the antibody for CTGF using an ELISA method. 20 μL of PBS solution of human CTGF (1 μg/mL) was added to a Maxisorp 384 plate (Nunc, Inc.), and immobilized by being incubated overnight at 4° C. The next day, the plate was washed once with 100 μL of washing solution (TPBS: 0.05% Tween-20-containing PBS), and then 100 μL of blocking agent (1% BSA-containing PBS) was added thereto and allowed to stand at room temperature for 1 hour. After washing once with 100 μL of TBST washing solution, a series of appropriate dilutions of the purified antibody sample were prepared and added to the plate. After incubation at room temperature for 1 hour, the plate was washed three times with 100 μL of TBST washing solution, and a goat anti-mouse IgG antibody labeled with a horseradish peroxidase (HRP-goat anti-mouse IgG antibody; Zymed Laboratories, Inc.) which was diluted 5000-fold with a 0.1% BSA-containing TBST washing solution (20 μL) was added thereto. […] After adding 40 μL of TMB chromogenic reagent (Sumitomo Bakelite Co., Ltd.) thereto and allowing it to stand at room temperature for 10 minutes, 40 μL of stopping solution (2 mol/L sulfuric acid) was added thereto to stop the reaction, and the absorbance at 450 nm was measured. Each of the antibodies was tested in duplicate, and the EC50 was analyzed by curve fitting.

monkey CTGF = molecular target: T4, monkey CTGF (monkey); assay: ELISA, CTGF immobilized on the plate, HRP anti-human IgG detection
T4 construct: mature
Method: (§1) The present inventors evaluated the binding specificity of the antibody for CTGF using an ELISA method. 20 μL of PBS solution of human CTGF (1 μg/mL) was added to a Maxisorp 384 plate (Nunc, Inc.), and immobilized by being incubated overnight at 4° C. The next day, the plate was washed once with 100 μL of washing solution (TPBS: 0.05% Tween-20-containing PBS), and then 100 μL of blocking agent (1% BSA-containing PBS) was added thereto and allowed to stand at room temperature for 1 hour. After washing once with 100 μL of TBST washing solution, a series of appropriate dilutions of the purified antibody sample were prepared and added to the plate. After incubation at room temperature for 1 hour, the plate was washed three times with 100 μL of TBST washing solution, and a goat anti-mouse IgG antibody labeled with a horseradish peroxidase (HRP-goat anti-mouse IgG antibody; Zymed Laboratories, Inc.) which was diluted 5000-fold with a 0.1% BSA-containing TBST washing solution (20 μL) was added thereto. After incubation at room temperature for 1 hour, the plate was washed three times with 100 μL of TBST washing solution. After adding 40 μL of TMB chromogenic reagent (Sumitomo Bakelite Co., Ltd.) thereto and allowing it to stand at room temperature for 10 minutes, 40 μL of stopping solution (2 mol/L sulfuric acid) was added thereto to stop the reaction, and the absorbance at 450 nm was measured. Each of the antibodies was tested in duplicate, and the EC50 was analyzed by curve fitting.
(§2) The present inventors evaluated the binding specificity of fully human 37-45 and fully human 37-45-MH1 prepared in the above Examples to human, mouse, rat and monkey CTGF using an ELISA method. Here, the same method as described in Example 4 was used, but a rabbit anti-human IgG antibody labeled with horseradish peroxidase (HRP-rabbit anti-human IgG antibody; DAKO) which was 5000-fold diluted with a 0.1% BSA-containing TBST washing solution as a secondary antibody. The test on each antibody was carried out in duplicate and EC50 was analyzed by curve fitting.

human CTGF [2] = molecular target: T1, human CTGF; assay: as above
Method: as §1, §2

rat CTGF = molecular target: T2, rat CTGF; assay: as above
Method: as §1, §2

mouse CTGF = molecular target: T3, mouse CTGF; assay: as above
Method: as §1, §2

human CTGF [3] = molecular target: T1, human CTGF; assay: SPR, Biacore 2000, comparison of KD with the reference antibody CLN1
Text: (§3) In order to measure the antigen-specific binding activity of fully human 37-45-MH1 in more detail, the present inventors carried out surface plasmon resonance (SPR) analysis. In the present Example, an anti-human CTGF antibody CLN1 (Patent Document 2) was used as a comparative antibody.
(§4) In the SPR analysis, Biacore 2000 (GE Healthcare Japan) was used to carry out analysis. An anti-CTGF antibody was immobilized on the surface of a Sensor Chip CM5 using a Human Antibody Capture Kit and an Amine Coupling Kit (GE Healthcare Japan). Serial dilution of the human CTGF acquired in Example 1 was made by HBS-EP solution (GE Healthcare Japan). 100 μL of the dilution was added to flow path at flow rate 50 μl/min. By this measurement system, the association rate constant (ka), the dissociation rate constant (kd), and the dissociation constant (KD) between the human CTGF protein and the anti-CTGF antibody were calculated using a data analysis software (BIA Evaluation).

human CTGF [4] = molecular target: T1, human CTGF; assay: SPR, Biacore 2000, antibody captured on CM5 chip (Human Antibody Capture Kit), human CTGF as analyte
Text: as §3, §4

| EC50 (human CTGF [1]) | EC50 (monkey CTGF) | EC50 (human CTGF [2]) | EC50 (rat CTGF) | EC50 (mouse CTGF) | fold binding activity against CLN1 (human CTGF [3]) | Kd (human CTGF [4]) | koff (human CTGF [4]) | Binder |
| --- | --- | --- | --- | --- | --- | --- | --- | --- |
| 0.0016 µg/mL |  |  |  |  |  |  |  | B1 |
|  | 0.0125 µg/mL | 0.0132 µg/mL | 0.0131 µg/mL | 0.0124 µg/mL |  |  |  | B2 |
|  | 0.0086 µg/mL | 0.0104 µg/mL | 0.0092 µg/mL | 0.0092 µg/mL | ≥ 12 times | 0.037 nM | 0.00016 s⁻¹ | B3 |
